Measurements from US20230340151A1 (Pfizer, published 2023).

Tests used:
Assay in all cases: flow cytometry on cells displaying the construct
[1] = molecular target: T1, CID1940 (reverse chimera, chicken GUCY2c with human residues) (chicken/human)
T1 chain: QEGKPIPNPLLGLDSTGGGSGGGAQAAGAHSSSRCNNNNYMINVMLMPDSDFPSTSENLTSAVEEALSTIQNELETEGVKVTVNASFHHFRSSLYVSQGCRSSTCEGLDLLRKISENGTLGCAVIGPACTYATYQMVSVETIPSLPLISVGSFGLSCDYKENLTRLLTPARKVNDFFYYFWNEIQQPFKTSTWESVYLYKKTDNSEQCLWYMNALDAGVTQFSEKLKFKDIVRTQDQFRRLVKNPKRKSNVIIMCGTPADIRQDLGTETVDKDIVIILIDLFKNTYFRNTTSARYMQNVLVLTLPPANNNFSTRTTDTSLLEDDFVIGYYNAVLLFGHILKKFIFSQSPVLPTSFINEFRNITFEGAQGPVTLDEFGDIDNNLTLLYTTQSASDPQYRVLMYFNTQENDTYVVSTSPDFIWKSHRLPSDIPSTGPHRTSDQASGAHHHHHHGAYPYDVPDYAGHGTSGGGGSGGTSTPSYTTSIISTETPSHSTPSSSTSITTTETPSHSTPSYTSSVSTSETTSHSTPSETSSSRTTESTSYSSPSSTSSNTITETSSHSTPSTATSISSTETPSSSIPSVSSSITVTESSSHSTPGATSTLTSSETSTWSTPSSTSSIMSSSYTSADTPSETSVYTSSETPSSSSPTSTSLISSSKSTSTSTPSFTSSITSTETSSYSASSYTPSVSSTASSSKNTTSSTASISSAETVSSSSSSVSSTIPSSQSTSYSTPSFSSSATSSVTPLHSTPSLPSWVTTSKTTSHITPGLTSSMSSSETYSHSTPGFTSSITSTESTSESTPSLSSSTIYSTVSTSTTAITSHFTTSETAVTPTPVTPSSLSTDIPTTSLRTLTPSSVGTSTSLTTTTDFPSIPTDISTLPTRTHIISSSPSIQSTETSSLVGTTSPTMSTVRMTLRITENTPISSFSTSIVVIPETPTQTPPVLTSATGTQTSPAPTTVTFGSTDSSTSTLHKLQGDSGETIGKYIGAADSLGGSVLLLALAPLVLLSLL

[2] = molecular target: T2, CID1875 (human-chicken GUCY2c chimera) (human/chicken)
T2 chain: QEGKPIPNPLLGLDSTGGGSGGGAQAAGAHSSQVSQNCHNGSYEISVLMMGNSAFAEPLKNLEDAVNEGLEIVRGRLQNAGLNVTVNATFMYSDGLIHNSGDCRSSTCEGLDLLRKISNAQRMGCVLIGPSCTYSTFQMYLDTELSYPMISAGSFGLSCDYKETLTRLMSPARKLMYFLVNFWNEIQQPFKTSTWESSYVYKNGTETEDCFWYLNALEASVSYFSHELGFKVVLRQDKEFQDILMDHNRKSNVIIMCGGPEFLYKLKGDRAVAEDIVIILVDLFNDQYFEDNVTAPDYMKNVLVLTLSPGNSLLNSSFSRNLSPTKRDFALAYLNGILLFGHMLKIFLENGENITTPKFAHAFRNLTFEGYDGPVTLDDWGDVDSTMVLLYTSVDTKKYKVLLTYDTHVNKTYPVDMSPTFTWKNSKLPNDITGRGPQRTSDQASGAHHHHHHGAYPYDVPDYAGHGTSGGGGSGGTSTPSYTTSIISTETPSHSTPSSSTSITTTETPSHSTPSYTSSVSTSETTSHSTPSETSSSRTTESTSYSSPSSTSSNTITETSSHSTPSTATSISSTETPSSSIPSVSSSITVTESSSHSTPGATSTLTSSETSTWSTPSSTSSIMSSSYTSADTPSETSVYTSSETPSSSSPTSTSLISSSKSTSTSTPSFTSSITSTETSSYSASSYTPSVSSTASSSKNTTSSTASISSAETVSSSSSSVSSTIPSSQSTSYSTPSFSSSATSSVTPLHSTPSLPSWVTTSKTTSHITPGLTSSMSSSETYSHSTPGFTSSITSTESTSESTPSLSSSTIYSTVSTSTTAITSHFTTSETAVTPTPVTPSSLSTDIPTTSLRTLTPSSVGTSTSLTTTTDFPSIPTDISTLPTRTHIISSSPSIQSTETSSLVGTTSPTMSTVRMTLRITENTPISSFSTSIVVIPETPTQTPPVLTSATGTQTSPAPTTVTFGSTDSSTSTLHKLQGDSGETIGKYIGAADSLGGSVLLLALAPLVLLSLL

[3] = molecular target: CID1873 (human GUCY2c patch mutant) (human/chicken)
[4] = molecular target: T3, CID1880 (human-chicken GUCY2c chimera) (human/chicken)
T3 chain: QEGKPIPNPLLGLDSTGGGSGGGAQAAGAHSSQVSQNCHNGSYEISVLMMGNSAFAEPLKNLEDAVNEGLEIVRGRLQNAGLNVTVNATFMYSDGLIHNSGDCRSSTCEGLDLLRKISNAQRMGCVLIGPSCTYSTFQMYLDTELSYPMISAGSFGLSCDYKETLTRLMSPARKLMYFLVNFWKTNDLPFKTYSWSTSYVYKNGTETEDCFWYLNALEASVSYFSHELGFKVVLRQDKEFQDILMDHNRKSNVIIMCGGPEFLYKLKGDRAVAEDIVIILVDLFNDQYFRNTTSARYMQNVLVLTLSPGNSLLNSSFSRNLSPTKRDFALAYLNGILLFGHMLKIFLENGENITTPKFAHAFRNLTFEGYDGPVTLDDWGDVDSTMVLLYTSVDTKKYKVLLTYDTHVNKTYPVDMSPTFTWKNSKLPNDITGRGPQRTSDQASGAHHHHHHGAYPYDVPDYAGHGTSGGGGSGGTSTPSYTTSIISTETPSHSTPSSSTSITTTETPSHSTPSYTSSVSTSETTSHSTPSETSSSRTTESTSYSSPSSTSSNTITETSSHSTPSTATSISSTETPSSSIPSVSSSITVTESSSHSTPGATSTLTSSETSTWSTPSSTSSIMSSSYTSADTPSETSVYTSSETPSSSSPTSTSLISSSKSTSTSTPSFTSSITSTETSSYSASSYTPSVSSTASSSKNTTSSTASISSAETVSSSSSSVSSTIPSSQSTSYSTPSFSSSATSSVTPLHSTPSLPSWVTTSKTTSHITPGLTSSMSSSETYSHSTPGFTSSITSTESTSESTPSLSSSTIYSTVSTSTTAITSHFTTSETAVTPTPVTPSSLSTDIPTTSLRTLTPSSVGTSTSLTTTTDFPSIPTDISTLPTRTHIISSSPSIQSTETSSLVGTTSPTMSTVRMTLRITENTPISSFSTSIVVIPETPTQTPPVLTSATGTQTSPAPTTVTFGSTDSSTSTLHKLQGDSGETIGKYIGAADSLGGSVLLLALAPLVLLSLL

Measured: binding result

B1: GUCY2C-1608 (bispecific antibody)
chain 1: DIQLTQSPSSLSASVGDRVTITCRASESVDYYGSSLLQWYQQKPGKAPKLLIYAASKLASGVPSRFSGSGSGTDFTLTISSLQPEDFATYYCQQTRKAYTFGQGTKLEIKGGGSGGGGEVQLVESGGGLVQPGGSLRLSCAASGFTFSDYYMTWVRQAPGKGLEWVAFIRNQARGYTSDHNPSVKGRFTISRDNAKNSLYLQMNSLRAEDTAVYYCARDRPSYYVLDYWGQGTTVTVSSGCPPCPAPEAAGAPSVFLFPPKPKDTLMISRTPEVTCVVVDVSHEDPEVKFNWYVDGVEVHNAKTKPREEQYNSTYRVVSVLTVLHQDWLNGKEYKCKVSNKALPAPIEKTISKAKGQPREPQVCTLPPSREEMTKNQVSLWCLVKGFYPSDIAVEWESNGQPENNYKTTPPVLDSDGSFFLYSKLTVDKSRWQQGNVFSCSVMHEALHNHYTQKSLSLSPG
chain 2: DIQMTQSPSSLSASVGDRVTITCTSSQSLFNVRSQKNYLAWYQQKPGKAPKLLIYWASTRESGVPSRFSGSGSGTDFTLTISSLQPEDFATYYCKQSYDLFTFGGGTKVEIKGGGGSGGGGEVQLVESGGGLVQPGGSLRLSCAASGFTFSSYWMHWVRQAPGKGLEWIGEIKPSNELTNVHEKFKDRFTISVDKAKNSAYLQMNSLRAEDTAVYYCTRTITTTEGYWFFDVWGQGTLVTVSSGCPPCPAPEAAGAPSVFLFPPKPKDTLMISRTPEVTCVVVDVSHEDPEVKFNWYVDGVEVHNAKTKPREEQYNSTYRVVSVLTVLHQDWLNGKEYKCKVSNKALPAPIEKTISKAKGQPREPQVYTLPPCREEMTKNQVSLSCAVKGFYPSDIAVEWESNGQPENNYKTTPPVLDSDGSFFLVSKLTVDKSRWQQGNVFSCSVMHEALHNHYTQKSLSLSPG
notes: also called GUCY2c CD3 bispecific
binds: all assays above
